Measurements from patent US20240166738A1 (Alector, published 2024).
Substitutions are numbered along the chain they refer to.

Biological target: human TMEM106B (human, UniProt Q9NUM4 2-274)
Experiment: cell-based or functional assay
Also: test concentration or dose not given here.

B1: TM-42 (antibody, V domains shown)
VH: QVQLQQSGAELAKPGASVKLSCKASGYTFTNYWMHWVKKRPGQGLEWIGYINPSSGYTKYNQKFKDKATLTADKSSNTAYMQLSSLTYEDSAVYYCTREGGSISDWYFDVWGTGTTVTVSS
VL: DIVMTQAAPSLPVTPGESVSISCRSSKSLLHSNGNTYLYWFLQRPGQSPQLLIYRMSNLASGVPDRFSGSGSGTAFTLRISRVEAEDVGVYYCMQHLEYPYTFGGGTKLEIK
% Protection from CPE: 28.4%

B2: TM-60 (antibody, V domains shown)
VH: QVQLQQSGPELVKPGASVKLSCKASGYTFTSYDINWVKQRPGQGLEWIGWIYPRDGNTQYIEKLKGKATLTVDTSSSTAYMELHSLTSEDSAVYFCARWIFYAMDYWGQGTSVTVSS
VL: DVLMTQTPLSLPVSLGDQASISCRSSQSIVHGNGNTYLEWYLQKPGQSPKLLIYKVSNRFSGVPDRFSGSGSGTDFTLKISRVEAEDLGVYYCFQGSHLPYTFGGGTKLEIK
% Protection from CPE: 94.2%

B3: TM-54 (antibody, V domains shown)
VH: QVQMQQSGPVLVKPGASVTLSCKASGYTFTTYDLNWVKQRPGQGLEWIGWIYPRGGSTEYNEKFKGKATLTVDTSSSTAYMELHSLTSEDSAVYFCAKYSIYAMDYWGQGTSVTVSS
VL: B2 VL with L99V, Y101W, I111M
% Protection from CPE: 68.1%

B4: TM-30 (antibody, V domains shown)
VH: QVQLQQSGPELVKPGASVKLSCKASDNTFTNYDVNWVRQRPGQGLEWIGWIYPRDGTTIYNEKFKGRATLTVDTSSSTAYMELHSLTSEDSAVFFCARTLPQAMDYWGQGTSVTVSS
VL: B2 VL with T7S, A19V, S28T, G32R, Y101W
% Protection from CPE: 104%

B5: TM-48 (antibody, V domains shown)
VH: B2 VH
VL: B2 VL with D17N
% Protection from CPE: 89.3%

B6: TM-15 (antibody, V domains shown)
VH: QVQLQQPGAEFVRPGASVKLSCKASGYTFTNYWITWVKQRPGHGLEWIGDIYPGSGNSNYNESFKRKATLTVDTSSSTAYMHLSSQTSEDSAVYFCARKAYGGFPYWGQGTLVTVSA
VL: DIQMTQSPASLSVSVGETVTITCRVSENIYNNLAWYQQKQEKSPQLLVFAATNLADGVPSRFSGSGSGTQFSLKINSLQSEDFGTYYCQHFWDTPFTFGSGTKLEIK
% Protection from CPE: 63.5%

B7: TM-63 (antibody, V domains shown)
VH: QVQLQQPGAELVKFGASVKLSCKASGYTFTSFWMHWVKQRPGQGLEWIGNIDPSDSETHYSQKFKDKATLTVDRSSNTAYIQLSSLTSEDSAVYYCARSSNWDNFDYWGQGTTVTVSS
VL: DIVMTQASPSVSVTPGESVSISCRSSQSLLHVNGNTYLYWFLQRPGRSPRLLIYRMSNLASGVPDRFSGSGSGTAFTLRISRVEAEDVGVYYCMQHLQYPFSFGSGTKLEMK
% Protection from CPE: 89.3%

B8: TM-80 (antibody, V domains shown)
VH: B7 VH with F14P, S31T, S61N, K63E, I81M, T113A
VL: B1 VL with L11V, K27Q, S32V, N35H, A75V, A85T, V90I, E98Q, Y101F, G105S
% Protection from CPE: 78%

B9: TM-64 (antibody, V domains shown)
VH: QVQLQQPGAELVKPGASVKLSCKASGYTFTSYWMHWVKQRPGHGLEWIGNIDPSDSDTHYNQNFRGKATLTVDKFSTTAYMHLSSLTSEDSAVYYCARSRGGTYDYGEAMDYWGQGTSVTVSS
VL: B1 VL with L11V, S32T, Y39F, Q47R, Y101F, G105S
% Protection from CPE: 89.3%

B10: TM-28 (antibody, V domains shown)
VH: EVQLQQSGPVLVKPGPSVKISCMASVFTFNDYYIHWVKQSHGKSLEWIGLVYPYNGGTNYNQNFKGKATLTVDTSSRTAYMELNSLTSEDSAVYYCARSYFSNPIGYWGQGTLVTVSE
VL: DIVMTQSPSSLSVSVGEKVTVSCKSSQSLLNSGNQKNYLAWYQQKPGQPPKLLIYGASTRESGVPDRFTGSGSGTDFTLTISSVQAEDLAVYYCQNDHSYPLTFGAGTKLELK
% Protection from CPE: 85.4%

B11: TM-7 (antibody, V domains shown)
VH: EVQLQQSGPVLVKPGPPVKISCKASGFTFTDYYIHWVKLSHGKSLEWIGLVYPYNGDTDYNQKFKGKATLTVDTSSSTAYMELNSLTSEDSAVYYCARTYYANSPDYWGQGTTVTVSS
VL: B10 VL with V15A, V21M, K36R, S83N
% Protection from CPE: 15.8%

B12: TM-18 (antibody, V domains shown)
VH: EVRLQQSGPELVKPGASVKISCKTSGYTFTDYYMNWVKQSHGKSLEWIVNINPNNGDAFYNQKFKGKATLTVDKSSNTAYLDLRSLTSEDSAVYYCAREGQLRLRRVYAMDYWGQGTSVTVSS
VL: DIVLAQSPASLAVSLGQRATISCRASKSVSISVYTYVHWYQQKPGQPPKLLIYLASNLESGVPARFSGSGSGTDFTLNIHPVEEEDAATYYCQHSRELPYTFGGGTKLEIK
% Protection from CPE: 100%

B13: TM-76 (antibody, V domains shown)
VH: QVTLKESGPGILQPSQTLSLTCSFSGFSLSTSGMGVSWIRKPSGKGLEWLAHIFWDDDKRYNLFLKSRLTVSKDTSSNQVFLMITSVDTTDTATYYCARMGRQRDYFDYWGQGTSLTVSS
VL: QIILTQSPAIMSASLGEEITLTCSASLSISYVHWYQQKSGASPKLLIYGTSNLASGVPSRFSGSGSGTFYSLTISSVEAEDAADYYCHQWSIYRTFGGGTKLEMK
% Protection from CPE: 89.2%

B14: TM-5 (antibody, V domains shown)
VH: QVQLQQSGTELARPGASVKVSCKASGYIFTTYGITWVKQRGGQGLEWIGEIYPRSDNTYYNEKFKDKATLTADKSSSTAYMELRSLTSEDSAVYFCARSKGSGTGDYWGQGTTVTVSS
VL: DIQMTQSPASLSASVGETVTITCRASENIYIYLAWYQQKQGKTPQLLVYNGKMLAENVPSRFSGSGSGTQFSLKINSLQPEDFGSYYCQHHYGSPPAFGAGTKLELK
% Protection from CPE: 63.3%

B15: TM-88 (antibody, V domains shown)
VH: EAQLQQSGPVLVKPGASVKMSCKTSGYTFTDYYINWVKQSHGKSLEWIGVINPYSGATYYTQKFKGKATLTVDKSSSTAYMELNSQTSEDSAVYYCARGGYDYGHWYFDVWGTGTTVTVSS
VL: ETTVTQSPASLSMAIGEKVTIRCITSSDIDDHMNWYRQKPGEPPEFLISEGNALRPGVPSRFSSSGYGTDFIFTIENILSEDVADYYCLQSDNLPLTFGAGTKLELK
% Protection from CPE: 78.5%

B16: TM-13 (antibody, V domains shown)
VH: QVQLQQSGAELVKPGASVKMSCKASGYTFTTFPIEWMKQSHGKGLEWIGNFHPYNDDTKYNEKFKGKATLTVDKSSSTVYLDLSRLTSDDSAVYYCARYFYGGMDYWGQGTSVTVSS
VL: DIQMTQSPASLSVSVGETVTITCRASENIYSSLGWYQQKQGESPQLLVFAATNLADGVPSRFSGSGSGTQYSLKINSLQSEDFGTYYCQHLWSIPWTFGGGTRLEIK
% Protection from CPE: 81.8%

B17: TM-84 (antibody, V domains shown)
VH: B16 VH with S40N, G44S, D73E, D82E
VL: B16 VL with Q37H, E42K, I94V, R103K
% Protection from CPE: 53.1%
